Results reported in publication PMC3189933, “Acylpeptide Hydrolase Inhibition as Targeted Strategy to Induce Proteasomal Down-Regulation” (PLoS ONE, 2011).

Tests used:
[1] = molecular target: Acylpeptide hydrolase from Sulfolobus solfataricus (Sulfolobus solfataricus)
[2] = molecular target: Acylpeptide hydrolase from Sulfolobus solfataricus (Sulfolobus solfataricus); assay: enzyme inhibition kinetics (Lineweaver-Burk); APEHSs pre-incubated with the peptide 30 min at 80°C, 25 mM Tris-HCl pH 7.5, substrate acetyl-Leu-pNA; competitive inhibition

Acylpeptide hydrolase from Sulfolobus solfataricus (Sulfolobus solfataricus), sequence (Q7LX61 entry or part of it): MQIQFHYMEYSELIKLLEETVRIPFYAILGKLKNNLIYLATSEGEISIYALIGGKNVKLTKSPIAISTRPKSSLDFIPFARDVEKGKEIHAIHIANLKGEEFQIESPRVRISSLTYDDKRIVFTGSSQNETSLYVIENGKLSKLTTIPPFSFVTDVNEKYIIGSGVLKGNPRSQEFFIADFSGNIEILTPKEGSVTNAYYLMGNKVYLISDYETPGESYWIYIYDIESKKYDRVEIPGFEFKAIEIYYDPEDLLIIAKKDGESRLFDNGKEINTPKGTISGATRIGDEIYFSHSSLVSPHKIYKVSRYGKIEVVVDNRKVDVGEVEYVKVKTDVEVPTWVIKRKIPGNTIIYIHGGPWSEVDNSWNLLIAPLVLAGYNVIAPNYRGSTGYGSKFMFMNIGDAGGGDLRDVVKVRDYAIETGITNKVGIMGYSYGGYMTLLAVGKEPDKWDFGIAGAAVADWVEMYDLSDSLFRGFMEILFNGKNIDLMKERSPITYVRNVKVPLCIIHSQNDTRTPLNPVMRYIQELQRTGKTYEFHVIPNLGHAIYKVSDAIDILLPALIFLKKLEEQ

B1: SsCEI 2 (peptide)
peptide: H-TILLEIKNINAD-NH2
B1 was tested, and the IC50 of inhibition of APEHSs activity (substrate Ac-Leu-pNA) [1] was 9.8 µM and the Ki [2] was 1000 nM.
